Article PMC11919686, “Structural basis for Vipp1 membrane binding: from loose coats and carpets to ring and rod assemblies” (Nature Structural & Molecular Biology, 2024)

Columns and labels:
[1] = target: the molecule itself; assay: cryo-EM structure; urea-unfolded protein added to an EPL lipid film and refolded by dialysis against 10 mM Tris-HCl pH 8.0; single-particle helical reconstruction or rotational symmetry (tubes, stacked rings, rings)
[2] = target: the molecule itself; assay: negative-staining EM; protein refolded in the absence of membranes; 2% uranyl acetate
[3] = target: the molecule itself; assay: cryo-EM structure; Vipp1 (α1–α6) with and without EPL membrane reconstitution; single-particle helical reconstruction of rods

B1: Vesicle-inducing protein in plastids 1 (Vipp1), full length, Synechocystis sp. PCC 6803 (natural protein, UniProt Q55707 1-267, looked up)
chain: MGLFDRLGRVVRANLNDLVSKAEDPEKVLEQAVIDMQEDLVQLRQAVARTIAEEKRTEQRLNQDTQEAKKWEDRAKLALTNGEENLAREALARKKSLTDTAAAYQTQLAQQRTMSENLRRNLAALEAKISEAKTKKNMLQARAKAAKANAELQQTLGGLGTSSATSAFERMENKVLDMEATSQAAGELAGFGIENQFAQLEASSGVEDELAALKASMAGGALPGTSAATPQLEAAPVDSSVPANNASQDDAVIDQELDDLRRRLNNL
notes: Vipp1 (sll0617) of Synechocystis sp; PCC 6803, full length; The C-terminal His-tag was cut off with 3C protease; residues of the 3C site may remain at the C-terminus; The deposited models hold 215 residues only; also called IM30; WT; not shown: His-tag, C-terminal, cleaved
Question: Does B1 bind [1]?
Answer: binds

B2: Vipp1 dL10Ala (substitution of aa 157–166 to alanine) (natural protein, Synechocystis sp. PCC 6803, UniProt Q55707 1-267, looked up)
chain: MGLFDRLGRVVRANLNDLVSKAEDPEKVLEQAVIDMQEDLVQLRQAVARTIAEEKRTEQRLNQDTQEAKKWEDRAKLALTNGEENLAREALARKKSLTDTAAAYQTQLAQQRTMSENLRRNLAALEAKISEAKTKKNMLQARAKAAKANAELQQTLAAAAAAAAAAAFERMENKVLDMEATSQAAGELAGFGIENQFAQLEASSGVEDELAALKASMAGGALPGTSAATPQLEAAPVDSSVPANNASQDDAVIDQELDDLRRRLNNL
notes: Vipp1 (sll0617) of Synechocystis sp; PCC 6803 with the hinge 2 region (aa 157–166) replaced by ten alanines; The methods describe the denaturing purification and tag cleavage only for Vipp1 and Vipp1 (α1–α6); this mutant was probably handled in the same way; also called Vipp1dlA10; plasticity-restrained Vipp1 mutant; source: E. coli C41; reconstituted with EPL lipids or without membranes
Question: Does B2 bind [1]?
Answer: binds

B3: Vipp1 dL10 (truncation of aa 157–166) (natural protein, Synechocystis sp. PCC 6803, UniProt Q55707 1-267, looked up)
chain: MGLFDRLGRVVRANLNDLVSKAEDPEKVLEQAVIDMQEDLVQLRQAVARTIAEEKRTEQRLNQDTQEAKKWEDRAKLALTNGEENLAREALARKKSLTDTAAAYQTQLAQQRTMSENLRRNLAALEAKISEAKTKKNMLQARAKAAKANAELQQTLAFERMENKVLDMEATSQAAGELAGFGIENQFAQLEASSGVEDELAALKASMAGGALPGTSAATPQLEAAPVDSSVPANNASQDDAVIDQELDDLRRRLNNL
notes: Vipp1 (sll0617) of Synechocystis sp; PCC 6803 with aa 157–166 (hinge 2) deleted; The methods describe the purification and tag cleavage only for Vipp1 and Vipp1 (α1–α6); source: E. coli C41
Question: Does B3 bind [2]?
Answer: binds

B4: Vipp1 (α1–α6), truncation of helix α0 (aa 1–23) (domain or fragment, Synechocystis sp. PCC 6803, UniProt Q55707 24-267, looked up)
chain: DPEKVLEQAVIDMQEDLVQLRQAVARTIAEEKRTEQRLNQDTQEAKKWEDRAKLALTNGEENLAREALARKKSLTDTAAAYQTQLAQQRTMSENLRRNLAALEAKISEAKTKKNMLQARAKAAKANAELQQTLGGLGTSSATSAFERMENKVLDMEATSQAAGELAGFGIENQFAQLEASSGVEDELAALKASMAGGALPGTSAATPQLEAAPVDSSVPANNASQDDAVIDQELDDLRRRLNNL
notes: Vipp1 (sll0617) of Synechocystis sp; PCC 6803 without helix α0 (aa 1–23 truncated); The models were built from PDB 7O3W with aa 1–22 removed, whereas the construct lacks aa 1–23; Residues of the 3C site may remain at the C-terminus; also called Vipp1(α1-6); truncated Vipp1 lacking α0; not shown: His-tag, C-terminal, cleaved
Question: Does B4 bind [3]?
Answer: binds
